For this test, the target named is DENV NS2B3 protease, active site mutant NS2B3^S135A (coexpressed NS2B hydrophilic core and NS3 prote (Dengue virus (serotype not given))). As to the kind of experiment: native gel or EMSA. (A gel shift assay detects complexes by their altered migration in electrophoresis.)

This is an account of results in article PMC10011430.

Usually Kd stands for the concentration at which binding is half-saturated. The low end stands for tighter binding, the high end for weaker binding. With “cGAS cleavage product C-terminal (CP-C, 125-522) (from UniProt Q8N884 125-522) (domain or fragment)”, the Kd amounted to 39.2 µM.
Then “full-length human cyclic GMP-AMP synthase (cGAS) (from UniProt Q8N884 1-522) (natural protein)”, with 21.6 µM.
